In the domain aggregation screens of Martell et al. (2025):

experiment: soluble fraction after stress (log2 fold change); higher = more stays soluble; pooled small domains, quantitative proteomics; conditions: stress: 75 degC
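Note: 20 min heating vs room temperature control held 20 min.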

| Sequence | soluble fraction (log2) |
| --- | --- |
| HMGPESKLTDAIKDYIYALYENLKGKSKFRNTIIEEVKKLYGVDISRESIRRVVNQKTDAETTENDDDEKA | 0.432 |
| HMGPKALLKIPGLQEVDAELLFKEGYKSISAVASADPEMLKAIPGVDEQKVTEWVTGAEQILSQQVNKGA | 0.49 |
| HMGPKPVDMSPIPEGQRNQVLHDWMYGRAANHPENWGQIRSDALERGLKSGLKADEIHAITGSVARALGLE | 0.0169 |
| HMGPNPLTEREQEILQLARTGEPVARLAKRLFLSPGTVRNHLSSAIGKLGAANRVEAAQFATERGW | 0.0399 |
| HMGPSLDAVREQIRDLIAEEDKSAPYSDLSLVAELEKRGIHISRRTIAKYRGEMGIPNSDQRRYF | -0.0939 |
| HMGPSSIVVYVSGAVKTPGVYTLAPGSRVDDAVRAAGGLSERAESAGTNLAAQLSDGEHVHVAAAGE | 0.0915 |
| HMGPTGGLTPHIAIADKRASEAIEFYKQAFGAVEQVRMPAEDGVRLMHAHLLVNGSSLMMHDDFPEYSGQ | 0.133 |
| HMGPTLSPAEKRVFEVIPYDAILQDMVIRAAELPPGEVLAALTTLELKGLIKRLPGNLVMRRAR | -0.294 |
| HMGPVALGVTDGATYFSSVTITFRRGTAVLDGEPIASGHTVYKSGAHSLTLTAGGKTRTIAFTMDT | -4.04 |
| HMGPVPLASAADMEKFYSHLQQVLDEVDFKDRTGSGHLMARLRRLFQRTVLDQNEINILRGILMAVQGRR | -3.03 |
| HMGQGAASAPLRELGVDPVSEKQMVLKDGRFGPYVTDGETNASLRKGDEVETITDERASELLQMRRDAGPS | -0.139 |
| HMGQISDDGALKKLASEVLAANPQALADWKAGKQQAVSFLVGQAMKASKGRGDAALLGELIRAALD | 0.2 |
| HMGQKASEVEKIFVELQQQIIRGDLPPGYRLVESQIAAQFGVSRTPARLAIERLATAGLVAHETNRGATVH | -0.823 |
| HMGQKNEDESLAKFYVHKKGNQYGPYSLIQIREYLKNNSFSLDDLASWDGQSWKKISQIPNLN | 0.12 |
| HMGQLTDKQILLFSGKLAYEPTFASKYSKAGESYDDFIIRISGDLTDPKKIKEYSPYLKELGF | -0.35 |
| HMGQNYTIVKGDSLWKIAQKQYGDGSQWKKIYDANKDAIESAAKKYGKKSSDSGKWIYPGVSLII | -0.112 |
| HMGQVEVPDVVGMTQERAITTLTEAKLVAQIQLTPADVAKGLVAAQSPRAGLKIGEGSFVTIEVSTGPVI | -0.306 |
| HMGQVFEGTFNRKANGKNSVTPAEGGEPVFIAERNSLHAMNGDLVKVSLLAKKKHQPREAQVIEILKRSD | 0.128 |
| HMGQVPPLTRRETEIARLVSRGLSNKEIASTLVISPRTAEGHVEHILDKLGFSSRTQIATWLNEQTRNGK | -0.14 |
| HMGRDWKTDLLNLATARGWGDVSYEVTGEGPDHARVYTAVAIVANQKTGTGVGPSKKEAERLAAEQAYRML | -0.099 |
| HMGRELSDLELSLLRILDDKIPLLIDEAADRLQLPVAQVLSAVTIMEIDGLIRREGMRKYLRTVEVEETK | -1.63 |
| HMGRFAETVEHIVAAQLARRQGIPTMEQFASFFNVSRATFQRRLGEEGETLEQIKQRVRLRLALELLHP | -3.1 |
| HMGRGAAKGPLKELGLDPVTGRPLVVKDGKFGMYVTDGETNAGLRRGDLVEQLTLDRGMELLAERRARADQ | 0.201 |
| HMGRKIDDPSSMTGAEKAAVILLALGDEQRQLWEMMDDEEIRVVSQAMVNLGNVTSGAVEKLIMEFVGSMS | -0.37 |
| HMGRKPATTIPLQVRNAVLDLYRTKYYGANFQHYTELLHEHEGIRISTSSVAKILEAEYILSPK | -1.58 |
| HMGRKPVSPEIVERVLQLAKSNPDWGYEHIAGTMRYLGYNVSATTIRHILEANGIVPDPERRL | -0.464 |

| Sequence | soluble fraction (log2) |
| --- | --- |
| HMGRMSLDEAKAVILPIGEHKGHTMGEVLAIKPGLIDFYASQKFNSGKYPYLKEAAQVILENQG | -0.0288 |
| HMGRRERKKLQSRRAIIEAAVTEFKEKGFREASVADIMTRADLGLGTFYNYFQSKEDILMSLLS | -0.0594 |
| HMGRRRAAPQEPLRQFPASPVTGQPIKLLLGQYGPYVTDGTTNASLPKGSSPDELTFEQATQLLAERALRG | 0.0333 |
| HMGRSARVQQAVHQAVRALLEENDGERSALSVPLVAERAGVNSSTIYRRWGDLPRLLAAVASN | -0.686 |
| HMGRTVKGVNFVGLRDAGDPVDLAEIYSKEGADELVFLDITATHEKRKTLLDLVTRVAERINIPFTVGGGI | 0.056 |
| HMGSALLEAGADDAGQRLDQWLAAKLGPSISRSRVQALIKQGAVLVGGKPAGEAKRKLVAGDVVSVALPEP | 0.0393 |
| HMGSDLVAWAQTRIGRHPEEAADVIAALIDRHGEARVRAASRSLLARKFAHASDLRTAIDAAIG | -0.365 |
| HMGSEEMLGALGVVERATDDGDWWIAVHGEHWRARSAQALVPGDRVRVARIDGLTLTVTPIA | -0.632 |
| HMGSEGVKVEDTIGMSEAEATATLGKSGFVVNKTESHDPYIKAGNVITQSPAAGSKAPKGTTVTLTISLGP | 0.404 |
| HMGSEISYSEFLNRVEQGQVAAVRLDGEQIFITGPTGEAYQTIQPRNTDVLPDLREAGVEIQAAPQ | 0.22 |
| HMGSEYPSNPLASRWAKGVRLYHDEWGYGVIQAARGSEPDDYVITVRFESGAEKSFLPKFQAHSLMIVKD | -1.21 |
| HMGSGQVTLPDLEGKSMKEVARILSQLGLHLSPDGHGLAFKQSPAAGTRVPVGSTIKVSFQPL | -0.164 |
| HMGSKKAIPYVSGMSETEAQNELEEAGFKVTSSFQYDDSVESGKVISTTPEAGTKAEKGSTVTMLVSQGSN | 0.0103 |
| HMGSLVQTAMQAVTKHIHDNAMRVGDTLPGEGHFAETLGVSRAVMREAFGALAALKLIDVGNGRKPRVGR | -1.33 |
| HMGSNATIKYAIKGDESLVQVAQKFNVTVSELRSWNNISAFENAKTGQELVINVPASKYETYFALANT | 0.403 |
| HMGSNLSFDLSQIIASRYQEKAAELGLTAPSLARTDLSPQEQATAEVVARAIIADYYDQRVAPFNDLIPQ | -0.631 |
| HMGSNRPLALGDVVRIEGSKTLGTILELNAKDAVVALGALKTTLPLSRIHHASSQESQRLKRQATQAPLR | -0.203 |
| HMGSPKLVIKNGQVDYQVLKKEKLDLLELTSLLRGQNTFSIREIEYAIIEPNGVITVIKKPEYQSVVKGDL | -0.43 |
| HMGSPVTAVMNRVLNETERQIVTLHVISGFKHREIAELLEKPVGTVLWTYNNALGKMRKAMQRE | -1.67 |
| HMGSRRFGDSNHAAKLTEEQVVEIRELAAAGATTKFLAEMVGMHPNYVGLILRGLSWPEAGGPLRVA | 0.126 |
| HMGSVDMVYGDHKINSEHMDLSFKNQTAVLYDKVNYKSSLSMLSADKILVNFLNKYTKIEMNDENNNILIQ | 0.176 |
| HMGSVNDNVQKLTSQIGETTETGDTITPEDVELYKKMVDPLSTMAQKLEAAEILKLKGIIGSNGIIV | -0.211 |
| HMGSWEDALKNWVDSALASGQKGILEQAVPKFERIMIETALTHTAGRRRDASLLLGWGRNTLTRKIKELGI | -0.383 |
| HMGTAESIRLFLSSGLIKGVGEALAGRIVDTFGTDTFDIIENHPELLAGVKGISHRLAMSIYESFSQHIGV | -1.13 |
| HMGTDIGADKAAQTALADAGLSSSQVTGLRTKQDWDDGQLRYEVEFRAGGVEYDYELAADGTILKADRDT | 0.17 |
| HMGTEITEQRAKEIALENAKVAESDVTAMRVKKEMDDGVWRYDVEFYVQNKEYDYEINAMDGTILSVDYD | -0.00128 |

| Sequence | soluble fraction (log2) |
| --- | --- |
| HMGTESFGARIRKIREARDWTPAALAEATGQTPEFVARVERDEVAPPVAFLLRLAAALGVDPSTF | -0.557 |
| HMGTGADKNSWTIGDKVKHRKWGTGTVVKVTGAGEDAELDIAFKSEGIKRLLAAFAPIEKVK | -0.165 |
| HMGTHDAGTRFFDNLDSLLQNRDATRADVLAVYLLAVSLGFRGKHRSVSSAPQIAHYRNQAYVTLFQ | 0.737 |
| HMGTIEQAFKGKAPGSAHLYDRARAVLAGGVTHDTRIHAPFPIMVQRALGARKWDVDGNEYIDY | 0.064 |
| HMGTMKGFVDGSSVHLRSGPSLSESIRAKVVKGQTLYITERRGDWYRATVHGGGEGWIHTSLVKLAG | -1.68 |
| HMGTPLYLLLAAEVRDRIATEQLAPHTAVPSERELAELHGVSRMTARQALALLESEGLVYRNPPRGTFVAE | -1.15 |
| HMGTQIKSPMPGTILDVRVNVGDTVKEGDILMILEAMKMENEILAPVSGKVAAIQVSKGTAVNSGDLLAVL | -0.0689 |
| HMGTRHPLPYAYARANTVLLEDDGDRLVLWAPENVSLTALGEVLRRFDVDALERESSSTLANRIAVAYAG | -0.774 |
| HMGTTLTKIPGIGENRARLLLRHFGSLRAVREADADALAAVKGMTRPAAEAIVRYFEQQDAEGRRD | 0.282 |
| HMGTTTPPATRKGKVTSSFLNVRSGPSTANAKVAELKQNAVVTIYETSSNGWHRIGVNQWVIGTNIQE | -1.2 |
| HMGTVSSGSSSTDTPFSLGEIVRHKVFGEGVVLSIEGQGDASRIQINFNTAGTKWLVTAYADLEK | -1.09 |
| HMGTVVKRNALVHAWTEFNGGRASTKLLALGPGKVGEWIELENPQSGRKLRGEVQVDGSVRLG | 0.0593 |
| HMGTWKKIGTMTATVNDLYVRETPNGYIMGFINKGTVVEVDGKTTGKWTHAKVEGIGVGWIWTGYLDK | -3.17 |
| HMGTYYTEIIAQLKKEIANGTWKLGERLPGELALAKQFNVSRSSIREALKALAYAGIVESKPGRGTFLLHV | -1.5 |
| HMGVAAEDPDEAEKGAHSLKSSAANVGAEVVRGLAGEIESAASSGDVEAVRTILPGLEDAYSQAITDLET | 0.266 |
| HMGVDMGPAKYVGQKALTATEMRPAGKIQIGQTVFDAVSVGPFIGARKAVKVIKYENAQLYVEPE | -0.415 |
| HMGVEVEVPNVKGKLVADAEYELGLAQLTPVRTDSAYNRNLPPGTVLEQLPASGSHVKEGREIYLTINST | 0.284 |
| HMGVGERIKARRKEIGLSAEQVAKELGVSPATVYRYESNDIMNMRIDKLEPIAKALHTTPAYLMGWE | -0.0856 |
| HMGVGVKSTEVDYQRTSSGSDIPTDDAAWTKTIPAVKVNTFLWTRTKINYTDGTSAIFYSVGY | -3.05 |
| HMGVGVPVTLLLEKLGEDTLSAQQIMERLGLKSRASFRKVYLVPALEQKLIEMEFPDKPNSSKQRYRR | -0.859 |
| HMGVISRVITFWQNGFTVDDGPLRAFDDPANMAFMESIGRGEAPAELAPKTRTQRVNINLVQRHEPYSAPK | -0.147 |
| HMGVITVRPPIVVRDFAIALNLKPFQVIGNLMELNKVVSVSSVIEEADARKVAERHGYTLEIRH | -1.67 |
| HMGVMNEYEELRDRYLTGQIWKIGDLVEAKGIEGKIIQRGTNYITFNDSQGKVHKAWLHEIKV | -0.00315 |
| HMGVNNDIIKHRKLEFMIEMLPDTFTRKEANEIGEGLGISLATLTRYLSSDAFERTGHGRYRKKD | -1.35 |
